Test results from the supplement of paper PMC9732359.
± gives the uncertainty stated by the source.

Test: protein stability index of a GFP-peptide fusion (yeast GPS) (PSI 1-4); higher = more stable; sorted into four equal gates, so the index is relative within each strain
In short: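 Sequencing reads from sorted gates were used to score each peptide. The library consisted of tiled 17-residue yeast protein peptides fused downstream of GFP on a Cherry-expressing plasmid, pooled and carried in yeast. Mid-log cultures in leucine-free medium were split into four equal gates by GFP/Cherry ratio, and each gate's plasmids were PCR-amplified and Illumina-sequenced. The protein stability index adds up, over all gates, the read frequency multiplied by the gate number.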

Sequence | protein stability index (doa10∆) | protein stability index (pdr5∆) | protein stability index (san1∆) | protein stability index (ubr1∆)
NSDLEFNTFWDEKGNEI [ARP9] | 3.41 ± 0.08 | 3.25 ± 0.12 | 3.31 ± 0.12 | 3.34 ± 0.077
CLTMFEDRNESVNIAFA [ECM29] | 2.42 ± 0.13 | 2.52 ± 0.094 | 2.81 ± 0.11 | 2.5 ± 0.073
VEFNRKVVIPNLLCYYN [RPN3] | – | 1.67 ± 0.22 | – | –
DSQIVTPGELVTDDPIW [RRP4] | 2.78 ± 0.19 | 3.07 ± 0.11 | 2.76 ± 0.095 | 2.94 ± 0.077
TVASSKVGYTLPSHIIS [RPL4A] | 3.19 ± 0.076 | 3.02 ± 0.052 | 3.09 ± 0.035 | 3.25 ± 0.043
INVLTDQNPIQVVVDAI [RPS5] | 2.19 ± 0.044 | 2.59 ± 0.038 | 2.44 ± 0.055 | 2.05 ± 0.031
GTFGGDGMYSESKLSLE [FAS2] | 2.91 ± 0.046 | 2.66 ± 0.051 | 3.35 ± 0.036 | 2.87 ± 0.04
DMLTWVDSNLPDDEKFT [RPC40] | 2.92 ± 0.074 | 3.14 ± 0.063 | 2.56 ± 0.16 | 3.26 ± 0.074
SIQDTSTVAKNVSFVLP [YCG1] | 3.21 ± 0.11 | 2.92 ± 0.074 | 3.29 ± 0.08 | 3.04 ± 0.054
YGKVYKAKRQINSGTNS [SSN3] | 2.23 ± 0.066 | 2.04 ± 0.058 | 2.49 ± 0.094 | 2.68 ± 0.053
SKSAFSFGTANTNGTNA [YOR098C/NUP1] | 3 ± 0.088 | 3.08 ± 0.088 | 2.77 ± 0.14 | 2.86 ± 0.067
RRLPEDESYARAYRIIR [QCR7] | 2.81 ± 0.056 | 2.72 ± 0.061 | 2.53 ± 0.043 | 2.42 ± 0.043
ADAKAFLDSMAQKYASI [FAS2] | 3.07 ± 0.083 | 3.19 ± 0.086 | 3.12 ± 0.047 | 2.94 ± 0.049
QPVNINLDSSITQDGKF [YMR129W/POM152] | 2.92 ± 0.098 | 3.18 ± 0.084 | 3.07 ± 0.048 | 3.04 ± 0.059
IAEGQKKFATVPTGGAS [RPP2B] | 2.81 ± 0.057 | 2.89 ± 0.056 | 2.69 ± 0.06 | 2.53 ± 0.04
WLAAATATGIKVFSLDP [ASC1] | 2.58 ± 0.049 | 2.69 ± 0.045 | 2.81 ± 0.036 | 2.43 ± 0.029
GTGLQSYLEERERQVNE [RPC53] | 3.17 ± 0.16 | 3.24 ± 0.12 | 3.14 ± 0.11 | 3.25 ± 0.13
DLSSAASASGAAGAGAA [FAS2] | 1.78 ± 0.13 | 1.51 ± 0.11 | – | 1.66 ± 0.19
SEILIISSLMFDEEFDP [IRR1] | 2.5 ± 0.094 | 2.63 ± 0.095 | 2.67 ± 0.098 | 2.97 ± 0.07
DITDGKDYHTLANNVES [RPS18A] | 3.21 ± 0.052 | 3.31 ± 0.048 | 3.22 ± 0.042 | 3.22 ± 0.04
LINLAKTRVGSVTAQVY [RPC82] | 2.41 ± 0.096 | 1.66 ± 0.065 | 1.16 ± 0.18 | 1.45 ± 0.11
FEYLATVMYQRRSKMNP [PRE4] | 2.11 ± 0.12 | 2.72 ± 0.21 | 2.6 ± 0.15 | 2.57 ± 0.28
KLHVNWNLNATKPNVLN [SIN4] | 2.94 ± 0.17 | 2.86 ± 0.11 | 2.85 ± 0.11 | 2.93 ± 0.098
SCGEEEFFSTNWLSIFN [REC8] | 3.33 ± 0.098 | 3.29 ± 0.073 | 3.34 ± 0.1 | 2.96 ± 0.087
KTSSQTSLSSKDLSNYR [YMR153W/NUP53] | 2.67 ± 0.055 | 2.54 ± 0.06 | 2.58 ± 0.089 | 2.65 ± 0.039
EVTEGQAEATEWAEENA [RPS0B] | 2.44 ± 0.27 | 3.22 ± 0.22 | 2.44 ± 0.17 | 2.44 ± 0.14
